B1: X-linked retinitis pigmentosa GTPase regulator (Homo sapiens), Q92834-2 (parent)
chain: MREPEELMPDSGAVFTFGKSKFAENNPGKFWFKNDVPVHLSCGDEHSAVVTGNNKLYMFGSNNWGQLGLGSKSAISKPTCVKALKPEKVKLAACGRNHTLVSTEGGNVYATGGNNEGQLGLGDTEERNTFHVISFFTSEHKIKQLSAGSNTSAALTEDGRLFMWGDNSEGQIGLKNVSNVCVPQQVTIGKPVSWISCGYYHSAFVTTDGELYVFGEPENGKLGLPNQLLGNHRTPQLVSEIPEKVIQVACGGEHTVVLTENAVYTFGLGQFGQLGLGTFLFETSEPKVIENIRDQTISYISCGENHTALITDIGLMYTFGDGRHGKLGLGLENFTNHFIPTLCSNFLRFIVKLVACGGCHMVVFAAPHRGVAKEIEFDEINDTCLSVATFLPYSSLTSGNVLQRTLSARMRRRERERSPDSFSMRRTLPPIEGTLGLSACFLPNSVFPRCSERNLQESVLSEQDLMQPEEPDYLLDEMTKEAEIDNSSTVESLGETTDILNMTHIMSLNSNEKSLKLSPVQKQKKQQTIGELTQDTALTENDDSDEYEEMSEMKEGKACKQHVSQGIFMTQPATTIEAFSDEEVEIPEEKEGAEDSKGNGIEEQEVEANEENVKVHGGRKEKTEILSDDLTDKAEDHEFSKTEELKLEDVDEEINAENVESKKKTVGDDESVPTGYHSKTEGAERTNDDSSAETIEKKEKANLEERAICEYNENPKGYMLDDADSSSLEILENSETTPSKDMKKTKKIFLFKRVPSINQKIVKNNNEPLPEIKSIGDQIILKSDNKDADQNHMSQNHQNIPPTNTERRSKSCTIL

Variants of: B1
Conditions: with pde6d_mouse Pde6d

**Q.** Which “effect of a mutation on the interaction” value does the source give for F130C here?
**A.** disrupting interaction

**Q.** H98Q was tested. Which “effect of a mutation on the interaction” value did it give?
**A.** disrupting interaction

**Q.** Which “effect of a mutation on the interaction” value does the source give for C250R here?
**A.** disrupting interaction

**Q.** With P235S as the variant, how does the “effect of a mutation on the interaction” value read?
**A.** decreasing interaction

**Q.** How did the “effect of a mutation on the interaction” value turn out when G275S was run?
**A.** disrupting interaction

**Q.** Which “effect of a mutation on the interaction” value does the source give for G215V here?
**A.** disrupting interaction

Source: IntAct's records for PubMed 9990021
